Source: patent publication US20090281024A1 (RAPTOR PHARMACEUTICALS, published 2009)

Legend:
[1] = target: T1, RAP d3 E251K, K256A, K270E (human, UniProt P30533 235-353); experiment: solid-phase assay, coated CR protein
T1 construct: range 201-319 (mature RAP numbering); Forward mutant of m1; same construct; also called RAP E251K, K256A, K270E; not shown: N-terminal hexahistidine and S-peptide tags of pET30(+)a
T1 sequence (looked up): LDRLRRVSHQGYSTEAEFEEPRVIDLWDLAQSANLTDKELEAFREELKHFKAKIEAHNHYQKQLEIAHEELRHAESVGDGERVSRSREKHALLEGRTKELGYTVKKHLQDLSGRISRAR
Procedure: (§1) Wells were washed with TBSTC and bound ligands detected with polyclonal anti-RAP (BP41/42, 1:1,000, BioMarin). Excess primary antibody was removed and wells washed before incubation with the secondary antibody, HRP-conjugated goat anti rabbit IgG (Bio-Rad). After washing, TMB substrate solutions (Bio-Rad) were added to detect HRP. Color development was stopped with 1N HCl. Absorption at 450 nm was measured with a microplate spectrophotometer (Molecular Devices). Data were plotted and Kd values derived by non-linear regression with the assumption of single-site binding (GraphPad Prism).
(§2) Next, the binding of RAP d3 and MegaRAP1 d3 proteins to LRP1 CR3-5 and LRP2 CR89 was assessed. […] In all cases, 10 mM EGTA prevented binding of both RAP d3 and MegaRAP1 d3 to CR proteins. Since calcium was the only divalent metal ion present in the binding buffer, this observation is consistent with both RAP d3 and MegaRAP1 d3 binding to calcium-loaded CR pairs. […] Therefore, wild-type RAP d3 and MegaRAP1 d3 have inverted binding preferences for these two receptor fragments.

[2] = target: T2, MegaRAP1 d3 (human, UniProt P30533 235-353); experiment: solid-phase assay, coated CR protein
T2 construct: range 201-319 (mature RAP numbering); d3 of the variant selected on LRP2 CR89; also called RAPv2A d3; RAP v2A; not shown: N-terminal hexahistidine and S-peptide tags of pET30(+)a
T2 sequence (looked up): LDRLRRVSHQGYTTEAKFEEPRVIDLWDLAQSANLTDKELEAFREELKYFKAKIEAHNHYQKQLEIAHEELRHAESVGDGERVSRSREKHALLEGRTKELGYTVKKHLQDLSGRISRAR
Procedure: as §1, §2

[3] = target: T3, RAP d3 E217K (human, UniProt P30533 235-353); experiment: solid-phase binding assay: LRP2 CR89 coated on the plate, d3 ligand in solution, anti-RAP detection, absorbance
T3 construct: range 201-319 (mature RAP numbering); Forward mutant of m1; same construct; also called RAP E217K; not shown: N-terminal hexahistidine and S-peptide tags of pET30(+)a
T3 sequence (looked up): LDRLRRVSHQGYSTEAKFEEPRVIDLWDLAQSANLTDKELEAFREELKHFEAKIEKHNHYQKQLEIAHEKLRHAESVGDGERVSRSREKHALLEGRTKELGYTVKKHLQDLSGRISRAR
Procedure: (§3) Solid phase binding assays—Purified, refolded CR protein (1 μg) was bound to Nunc Maxisorp™ 96-well plates in TBS pH 8 supplemented with 5 mM CaCl₂ (TBSC) overnight at 4° C. Wells were washed with TBSC and then blocked with TBSC containing 2% bovine serum albumin (BSA). RAP ligands were then incubated with the immobilized receptor at a range of concentrations for 2 hours in the above blocking buffer supplemented with 0.05% Tween-20 at room temperature. Control wells contained no added ligand. As an additional control, to determine whether the absence of calcium affected binding, 10 mM EGTA was included in the incubation medium for some samples. Wells were washed with TBSTC and bound ligands detected with polyclonal anti-RAP (BP41/42, 1:1,000, BioMarin). Excess primary antibody was removed and wells washed before incubation with the secondary antibody, HRP-conjugated goat anti rabbit IgG (Bio-Rad). After washing, TMB substrate solutions (Bio-Rad) were added to detect HRP. Color development was stopped with 1N HCl. Absorption at 450 nm was measured with a microplate spectrophotometer (Molecular Devices). Data were plotted and Kd values derived by non-linear regression with the assumption of single-site binding (GraphPad Prism).
as §2

[4] = target: T4, RAP d3 K270E (human, UniProt P30533 235-353); experiment: as above
T4 construct: range 201-319 (mature RAP numbering); Forward mutant of m1; same construct; also called RAP K270E; not shown: N-terminal hexahistidine and S-peptide tags of pET30(+)a
T4 sequence (looked up): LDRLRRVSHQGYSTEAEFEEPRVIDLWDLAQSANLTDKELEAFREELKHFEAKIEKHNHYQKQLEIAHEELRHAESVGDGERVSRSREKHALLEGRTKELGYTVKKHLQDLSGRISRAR
Procedure: as §3, §2

[5] = target: T5, RAP d3 E251K (human, UniProt P30533 235-353); experiment: as above
T5 construct: range 201-319 (mature RAP numbering); Forward mutant of m1; same construct; also called RAP E251K; not shown: N-terminal hexahistidine and S-peptide tags of pET30(+)a
T5 sequence (looked up): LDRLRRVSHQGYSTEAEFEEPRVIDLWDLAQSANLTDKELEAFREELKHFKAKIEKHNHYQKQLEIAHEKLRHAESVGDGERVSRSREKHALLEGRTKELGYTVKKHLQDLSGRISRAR
Procedure: as §3, §2

[6] = target: T6, RAP d3 H249Y (human, UniProt P30533 235-353); experiment: as above
T6 construct: range 201-319 (mature RAP numbering); Forward mutant of m1; same construct; also called RAP H249Y; not shown: N-terminal hexahistidine and S-peptide tags of pET30(+)a
T6 sequence (looked up): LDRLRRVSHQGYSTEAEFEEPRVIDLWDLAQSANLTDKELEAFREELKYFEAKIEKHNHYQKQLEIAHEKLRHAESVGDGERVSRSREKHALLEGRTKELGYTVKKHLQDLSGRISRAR
Procedure: as §3, §2

[7] = target: T7, RAP d3 K256A, K270E (human, UniProt P30533 235-353); experiment: as above
T7 construct: range 201-319 (mature RAP numbering); Forward mutant of m1; same construct; also called RAP K256A, K270E; not shown: N-terminal hexahistidine and S-peptide tags of pET30(+)a
T7 sequence (looked up): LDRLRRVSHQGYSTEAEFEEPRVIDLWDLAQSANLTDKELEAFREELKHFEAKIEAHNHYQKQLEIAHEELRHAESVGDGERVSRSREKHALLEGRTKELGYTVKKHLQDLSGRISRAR
Procedure: as §3, §2

B1: LRP2 CR89 (receptor)
chain: not shown
notes: domain: CR89; Limits of the fragment are set only by the primers LRP2CR8F and LRP2CR9R; also called YVWR; L2 CR89; not shown: N-terminal hexahistidine and S-peptide tags of pET30(+)a
**Q.** With B1 as the binder, how does the Kd [1] read?
**A.** 114 nM

**Q.** And the Kd [2]?
**A.** 38 nM

**Q.** Does B1 bind [3]?
**A.** no binding (tested: 100 nM)

**Q.** Does B1 bind [4]?
**A.** no binding (tested: 100 nM)

**Q.** Does B1 bind [5]?
**A.** no binding (tested: 100 nM)

**Q.** Does B1 bind [6]?
**A.** no binding (tested: 100 nM)

**Q.** Does B1 bind [7]?
**A.** no binding (tested: 100 nM)
